According to the supplement of paper PMC10567573:

B1: RBBP5 (parent)
chain: TGTSNTTAIKSIEFARKGSCFLIN
B2: APBB1IP (parent)
chain: FNYSVGFKDLNESLNALEDQDLDA

Variants of: B1
Assay: protein stability index of a GFP-peptide fusion (GPS, HEK-293T) (PSI 1-6); higher = more stable
Conditions: c terminus: a fixed tail appended
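Also: lentivirally expressed fusions sorted by FACS into six bins by GFP to DsRed ratio, PSI derived from sequencing read proportions per bin multiplied by bin number.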

Protein stability index: each site, then its substitutions
A15: D 2.9 | E 2.44 | C 1.89 | F 2.52
K10: C 2.38 | A 1.64 | E 2.62 | N 1.86 | P 2.38 | F 2.9 | G 2.19 | I 2.15 | Y 3.11 | S 2.93 | M 1.94 | V 1.93 | Q 2.82 | T 1.77 | L 2.74 | D 2.08 | H 2.77 | R 2.29
S4: M 2.21 | I 2.52 | L 2.17 | R 1.91 | P 2.01 | N 2.36 | Y 2.41 | V 2.09 | W 1.83 | Q 2.54 | E 2.35 | A 2.29 | T 1.95 | F 1.97 | H 2.3 | K 2.67 | C 2.2 | D 2.35 | G 2.17
S11: Y 1.32 | E 2.23 | P 2.61 | M 2.09 | T 2.1 | R 2.12 | H 3.02 | F 2.45 | G 2.12 | V 2.48 | D 2.6 | K 2.13 | A 2.18 | W 2.77 | I 3.31 | N 2.92 | C 1.74 | Q 2.74 | L 2.5
I12: D 2.79 | T 2.61 | K 2.23 | L 1.78 | E 3.5 | S 2.67 | V 2.6 | R 2.57 | N 2.67 | W 2.4 | F 2 | C 2.67 | Q 3.29 | P 3 | G 2.4 | Y 2.12 | H 2.94 | M 2.61 | A 2.94
F14: P 3.05 | W 2.07 | G 2.76 | S 3.42 | Y 2.38 | E 3.84 | M 2.69 | L 2.51 | I 2.64 | R 3.05 | K 3.17 | V 2.86 | T 2.97 | C 2.53 | H 2.73 | A 3.06 | D 3.15 | Q 3.12 | N 3.17
N5: K 2.15 | E 2.57 | Y 1.63 | I 1.95 | Q 2.58 | M 1.66 | V 2.38 | C 1.93 | L 1.9 | G 2.12 | R 2.36 | T 2.09 | H 2.12 | F 2.2 | P 2.08 | W 1.64 | S 2.02 | D 2.35 | A 2.1
A8: V 1.58 | P 2.69 | Q 2.21 | T 2.68 | C 2.71 | G 2.84 | W 2.62 | R 1.62 | N 2.56 | M 2.21 | L 2.17 | H 1.85 | E 2.71 | D 2.36 | F 1.81 | K 2.2 | S 2.01 | Y 2.22 | I 1.74
T7: H 1.97 | P 2.74 | Q 2.66 | E 2.51 | N 2.14 | F 1.93 | W 1.95 | R 2.15 | D 2.3 | G 2.56 | I 2.23 | M 1.95 | K 2.04 | Y 1.89 | L 1.77 | C 1.26 | A 2.85 | V 1.96 | S 2.4
T1: L 2.11 | K 2.45 | G 2.19 | P 2.47 | M 2.43 | R 2.75 | S 2.2 | A 2.15 | V 1.87 | C 1.53 | E 3.07 | F 1.88 | Y 1.79 | I 1.79 | D 3.69 | W 1.69 | Q 2.79 | H 2.59 | N 2.3
T3: E 2.55 | V 1.87 | S 1.9 | W 2.02 | G 2.24 | H 2.52 | P 2.46 | Y 1.94 | C 1.98 | K 2.9 | Q 2.11 | L 2.17 | N 1.86 | R 1.88 | M 2.2 | D 2.46 | A 2.15 | F 1.61 | I 1.83
T6: E 2.82 | I 1.63 | V 1.87 | Y 1.87 | A 2.87 | C 2.05 | R 1.55 | W 1.74 | S 2.64 | M 2.04 | H 2.67 | D 2.55 | G 1.98 | L 2.16 | P 2.29 | Q 2.12 | K 2.15 | F 2.09 | N 3.06
E13: A 1.92 | F 2.75 | M 2.15 | H 2.4 | S 2.38 | V 1.54 | D 2.32 | L 2.38 | C 1.97 | R 1.72 | Y 2.6 | G 2.11 | Q 1.67 | N 1.75 | P 1.75 | I 2.89 | K 2.19 | W 2.23 | T 2.31
G2: Q 2.47 | R 2.07 | A 2.02 | D 2.62 | Y 3.22 | L 2.18 | M 2.48 | S 2.11 | C 2.17 | F 1.76 | E 2.75 | K 2.31 | P 2.63 | N 2.29 | V 2.44 | W 2.51 | I 1.89 | H 2.03 | T 2.14
I9: N 2.44 | C 2.28 | G 2.37 | R 2.34 | S 2.12 | W 1.5 | K 2.47 | D 2.86 | M 2.67 | Q 2.62 | F 1.98 | P 2.61 | T 2.92 | H 2.35 | L 2.03 | Y 1.88 | A 2.48 | E 2.91 | V 2.76

Variants of: B2
Assay: as above
Conditions: c terminus: a fixed tail appended

Protein stability index, by site and new letter:
D23: W 1.81 | A 3.79 | E 4.22 | Q 4.22 | F 2.44 | G 4.41 | L 3.14 | H 3.69 | C 3.33 | I 3.56 | K 3.87 | S 4.02 | Y 2.57 | R 3.81 | T 3.85 | P 4.38 | V 3.18 | N 4.31 | M 2.86
D21: S 4.33 | Q 3.75 | Y 2.38 | V 3.38 | R 3 | P 3.77 | T 4.14 | W 2.43
A24: Q 4.72 | T 4.45 | Y 3.55 | N 4.5 | H 4.52 | W 3.77 | K 4.81 | P 4.42 | I 4.07 | G 3.68 | S 4.59 | F 3.85 | R 3.83 | D 4.68 | M 3.85 | C 4.24 | V 4.5 | L 4.09 | E 4.91
L22: P 4.92 | E 5.45 | A 5.06 | G 5.28 | W 3.86 | M 4.72 | Q 4.67 | Y 4.37 | V 4.6 | T 4.82 | S 4.76 | D 4.68 | H 4.96 | R 4.5 | I 4.74 | K 4.86 | N 4.79 | F 4.49 | C 4.62
